The text below walks through data of the nanobody polyreactivity screen of Harvey et al. (2022).

This data set is described as follows: yeast display, Sf9 membrane polyspecificity reagent, FACS + sequencing; frameworks hold sequencing errors. A digest of the protocol: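 Galactose-induced (36–48 hours) yeast carrying a synthetic nanobody display library were exposed to 10% biotinylated, detergent-solubilized Sf9 membrane reagent at 4 °C for 1 hour. FACS followed streptavidin microbead enrichment, using low and high (top ~1%) gates for expression (anti-HA) and reagent binding (streptavidin). Colony PCR, MiSeq 2 × 250 sequencing and CDR-length filtering followed. Labels for polyreactivity reflect the gate of origin.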
For the sequence “QDQLVESAAGLVQAGGSLRLSCAASGRTLYTNALGWYIQAPGKERELVAAISSDSSTKYADSVKGRFTISRDNAKNTVYLQMNSLKPEDTAVYYCARRGAFYYLYGHQYALYDYWGQGTQVTVSS”, the “polyreactivity (PSR sort gate)” value is reported as “low polyreactivity”. As to “QDQLVESAGGLVQAGGSLRLSCAASGRTFYFYTMGWYRQAPGKESELVATAITSGGSTNYADSVKGRFTISRDNAKNTVYLQMNSLKPEDTAVYYCAAVPTEFGNRLEYDYWGQGTQVTVSS”, the “polyreactivity (PSR sort gate)” value is “low polyreactivity”. Consider “QDQLVESAGGLVQAGGSRRLSCAASGFTFYRNAMGCYRQAPGKERELVAAISITGGRTYYADSVKGRFTISRDNAKNTVYLQMNSLIPEDTAVYYCAKDRQRYGGDFDYWGQGTQLTVSS”, for which the “polyreactivity (PSR sort gate)” value was “high polyreactivity”.

As for “QDQLVESCGGLVPAGGSLRLSCPASGPIFTYYTMGSYRQAPGKERELVAAITVRGGRTYYADSVKGRFTISRDNEKNTVYLQMNSLKPEDTAVYYCAARGLVRSYDYWGQGTQVSVSS”, the “polyreactivity (PSR sort gate)” value was “high polyreactivity”.

For the sequence “QDQLVESDAGLVQAGGSLRLSCAASGRIFLGNAMGRSIQPPGNERELVAAITYSGRSTYYSDSVKGRLTISRDNAKNTLYLQMNSLKPEDTAVYYCAARQYWTTDLPFQRYYYWGPGTQVTVSS”, the “polyreactivity (PSR sort gate)” value was “low polyreactivity”. Regarding “QDQLVESGACLVQAGGRLRLSCAASGFTFYYNAMGWYRQAPGKEREFVAAISRSGGSTTYADSVKGRFTISRDNAMNTGFLEMNSLKPEDTAVYYCNARRYRCKSYDYWGQGTQVTVSS”, the “polyreactivity (PSR sort gate)” value is given as “high polyreactivity”. The same measure for “QDQLVESGGALVQAGRSLRLSCAASGIIYIYYAMGWYIQAPGKERELVAAISGSGDSTYYADSVKGRFTISRDNAKNTVYLQMNSLKPEDTAVYYCARRSPNPYSIYYYWGQGTQVTVSS”: “high polyreactivity”; for “QDQLVESGGCLVQAGGSLRLRCAASGITFDRYTMGWYRQAPGKERELVAAIRSGGGTYYADSVKGRFTISRDNAKNTVYLQMNSLKPEDTAVYYCAATRVSPSQYLRYYYWGQGTQVTVSS”: “high polyreactivity”; for “QDQLVESGGCLVQAGGSLRLSCAASGSTFGYNVMGRYRQAPGKERELVAAISSSGGSTYYADSVKGRFSISRDNAKNTVYLQMNSLKPEDTAVYYCARSTYPYRYGYWGQGTQVTVSS”: “high polyreactivity”.

Take “QDQLVESGGCLVQAGGSLRLSCAASGSTFPIYAMGWYRQEPGKERELVAPITWNGGRTYYADSVKGRFTISRDNAKNTVYLQMNSLKPEDTAVYYCNALYYHNLEGNYWGQGTQVTVSS”: the “polyreactivity (PSR sort gate)” value is given as “high polyreactivity”. The value for “QDQLVESGGCLVQAGLSLRLSCAASGSTFGPYAMGWYRQAPGKERELVADISGGSTNYADSVKGRFTISRDNAKNTVYLQLNSLKPEDTAFYYCATDDHVETVRRLYGDWGQGTQVTVSS” was “low polyreactivity”; that for “QDQLVESGGGFVQAGGSLRLSCAASGSIFLINAMGWYRQAPGKERELVAAISWRGGTTYYADSVKGRFTISRDNAKNSVYLQLNSLKPEDTAVYYCAAYGGRFRGPTRYDYWVQGTQVTVSS” was “high polyreactivity”. The value for “QDQLVESGGGIVQAGGSIRLSCAASGNTFGWYAMGWYRKAPGKERELVASISSSGSTNYADSVKGRFTISRDNAKNTVYLQMNSLKPEDTAVYYSNADLTQYLGPVYEYVYWGQGTQVTVSS” was “low polyreactivity”; that for “QDQLVESGGGIVQAGGSLRLSCAASGFTFFANTMGWSRQAPGKERELVAVISSTVGYTYYADSVKGRFTISRDNAKNTVYLQMNSLKPEDTAVYYCAAKSIYDGFPYYLFDYWGQGSQVTVSS” was “high polyreactivity”; that for “QDQLVESGGGIVQAGGSLRLSCAASGSTIFYYAMGWYRQAPGKERELVAASSQRGGSTRYADSVKGRFTISRDNAKNTVYLQINSLKPEDSAVYYCAAARSPYKYSYWGQGTQVTVSS” was “high polyreactivity”. With “QDQLVESGGGIVQAGGSLRLSCAASGSTIPSYAMGWYRQAPGKERELVASITYSDGTTRYADSVKGRFTISRDNAKNTVCLQMNRLKPVDTAVYYCNAVYDREGMDYWGQGTQVTVSS”, the “polyreactivity (PSR sort gate)” value was “low polyreactivity”. With “QDQLVESGGGLDQAGGSLRLSGAASGGILPRYAMGWYRQAPGKERELVAGITRGGSTYYADSVKGRFSISRDNAKNTVYLQMNSLKPEDTAVYYCAKYGYQTGIFYYWGQGTQVTVSS”, the “polyreactivity (PSR sort gate)” value is “high polyreactivity”.

Consider “QDQLVESGGGLFQAGGSLRLSCAASGSIFGHYAMGWYRQAPGKERELVAAISWRGGSTYYADSVKGRFTISRDNAKNTVYIQMNSLKPEDTAVYYCAADRWDKAYDYWGQVTQVTVSS”, for which the “polyreactivity (PSR sort gate)” value is recorded as “low polyreactivity”.

For “QDQLVESGGGLFQEGGSLRLSCSASGSTFWVNTIRWYRQAPGKATELVADISSGGNTYYAHSVKGRFTISRDNAKNTVYLQMNSLKTEDTAVYYCNADPFTRWVIRDDYGGQGTQVTVSS”, the “polyreactivity (PSR sort gate)” value is “low polyreactivity”. On to “QDQLVESGGGLLQAGGSLRLSCASSGSIFANYVMGWYRQAPGKEREYFAGISRSGGSTYYADSVKGRFKISRDNAKNTVYLQMTSLKPEDTAVYYCNAGAGQRVSGHSFEYWGQGTQVTVSS”, for which the “polyreactivity (PSR sort gate)” value is “high polyreactivity”. With “QDQLVESGGGLVHAGGSLRLSCAASGRTFFVYAMGWYRHAPGKEREMVANINQGGGSTSYADSVKGRFTISRDNAKNNVYLQMNSLKPEDTAVYYCNADHYGIGYDPVPLGFVGYDYWGQGTQVTVSS”, the “polyreactivity (PSR sort gate)” value was “low polyreactivity”.

With “QDQLVESGGGLVPAAGSLRLSCASSGFSFRRNAMGCYRQAPGKEREFVAGITSGGSTYYADSVKGRFTISRDNAKNTVYLLLNSLKPEDTAVYFCAATYRRRYGYWGQGTQVTVSS”, the “polyreactivity (PSR sort gate)” value was “high polyreactivity”. Take “QDQLVESGGGLVQAGASLRLSCAASGSNGYYAMGWYRQAPGKERELVAVISRSGTGTYYADSVKGRFTISRDNAKNSVYLQMNSLKPEDTAVYYCNAETYTYRYEYDYWGQGTQVTVSS”: the “polyreactivity (PSR sort gate)” value was “high polyreactivity”. On to “QDQLVESGGGLVQAGCSLRLSCAASGLIFNYKVMGWYRHAPGKERELVAAISRGGSTYYADSVKGRFTFSRDNAKNTVYLQMNSLKPEDTAVYYCAARYRSRYDYWGQGTQVTVSS”, for which the “polyreactivity (PSR sort gate)” value is listed as “high polyreactivity”.

“QDQLVESGGGLVQAGCSLRLSCAASGSTIPYNAMGWYRQAPGKERELVAAITWRAGRTYYADSVKGRFTISRDNAKITVYLQMNSLKAEDTAVYDCAKSYQRGVNHYEYWGQGTQVTVSS”: the “polyreactivity (PSR sort gate)” value is “high polyreactivity”. For the sequence “QDQLVESGGGLVQAGGRLRLSCAASGLMFYYYAMGWYIQAPGKEREFVAAISRSGGITRYADSVKGRFTISRDNAKNTVYLQMNRLKPEDTAVYYCAAAVGSVRYDYWGQGTQVTVSS”, the “polyreactivity (PSR sort gate)” value is “high polyreactivity”. As to “QDQLVESGGGLVQAGGSHRLSCAASGFIIGYYAMGWYRQAPGKEMELVASIRRGGSTYYADSVKGRFTISRDNAKNTVYLQMNSLKPEDTAVYYCAAQRSVVGWWSRTSLYGDSDYWGLGTQVTVSS”, the “polyreactivity (PSR sort gate)” value is “high polyreactivity”.

Regarding “QDQLVESGGGLVQAGGSLCLSCAASGITFRFYAMGWNRQAPGKERELVAAISWSGGRTYYADSVKGRFTISRDNAKNTVYLQMNSLKPEDTAVYYCAAEASSVPGYDYWGEGTQVTVSS”, the “polyreactivity (PSR sort gate)” value is “low polyreactivity”. In the case of “QDQLVESGGGLVQAGGSLGLSCAASGITFDLYDMGWYRQAPGKERELVAAITDAHSTYYADSVKGRFTISRDNAKNTVYLQMNSLKPEDTAVYYCAADFFYSVDSGHYDYWGQGTQVTVSS”, the “polyreactivity (PSR sort gate)” value was “low polyreactivity”. Turning to “QDQLVESGGGLVQAGGSLRISCAASGFTLKKYVMGWYRQAPGKERELVAAISSSGGSTYYADSVKGRFTISRDNAKNTVYLQMNSLKPEDTAVYYCAAVQSYAGFEYGYWGQGTQVTVSS”, the “polyreactivity (PSR sort gate)” value is “high polyreactivity”. Turning to “QDQLVESGGGLVQAGGSLRISCAASGSTFPLYAMGWYRQAPGKEMEFVAAIRWIGGSTYYADSVKGRFTISRDNAMNTVYLQMNSLKPEDTAVYYCAADYVVSAFDYWGQGTQVTVSS”, the “polyreactivity (PSR sort gate)” value is “low polyreactivity”. On to “QDQLVESGGGLVQAGGSLRISCGASGRIFDIYAMGWYRQAPGKERELVADITSGGSTYYADSVQGRFTISRVNAKNTVYLQMNSLKPEDTAVYYCAARLFADYWGQGTHVTVSS”, for which the “polyreactivity (PSR sort gate)” value is reported as “low polyreactivity”. The value for “QDQLVESGGGLVQAGGSLRLICAASGFTFRWYSMGWYRQAPGKERELVADISRGGSTNYADSVKGRFTISRDHAKNSVYLQMNSLTPEDTAVFYCAATQRKYGYKSYYYWGQGTQVTVSS” was “high polyreactivity”; that for “QDQLVESGGGLVQAGGSLRLSCAASASIFNVNTMGWYRQAPGKERELVAAISYSGGSTYYADSVKGRFTISRDIAKNTVYLQMISLKPEDTAFYYCNVSPTTTVDGGGYDSWGQGTQVTVSS” was “low polyreactivity”; that for “QDQLVESGGGLVQAGGSLRLSCAASGFIFADYAMGWYRQATGKERELVAAISWGGGSTYYADSVKGRFTISRDIAKNTVYLQMNSLKPEDTAVYYCAAANPGSEYDYWGQGTQVTVSS” was “high polyreactivity”. The value for “QDQLVESGGGLVQAGGSLRLSCAASGFIFLPYVMGWYRQAPGKERELVAAISGGGGITYYADSVKGRFTISRDNAKNTVYLQMNSLKPEDTAVYYCAARRQRFGYWGQGTQVTVSS” was “low polyreactivity”; that for “QDQLVESGGGLVQAGGSLRLSCAASGFIFSPYAMGWYRQAPGKERELVAAINGGGRTYYADSVKGRFTISRDNAKNTVYLQMNILKPEDTAVYYCAVDPISQGHMDYWGQGTLVTVSS” was “low polyreactivity”; that for “QDQLVESGGGLVQAGGSLRLSCAASGFIIQGNAMGGYRQAPRKERELVAAISSSVSTYYADSVKGRFTISRDNAKNTVYLQMNSLKPEDTAVYYCNSGFPLSLWLGDYWGQGTQVTVSS” was “low polyreactivity”. The value for “QDQLVESGGGLVQAGGSLRLSCAASGFIVHRYVMGWYRQAPGKERELVAAISSGGSTNYADSVKGRFTISRDNAKNSVYLQMTSLKPEDTAVYYCAADGFYYRNWGRFRYYYWGQGTQVNVSS” was “low polyreactivity”; that for “QDQLVESGGGLVQAGGSLRLSCAASGFTFGDYAMGWYRQEPGKERELVAAISWSGSNTYYADSVKGRFTISRDNAKNTVYLQMNSLKPEDTAVYYCNADYDPEDMDYWGQGTQVTVSS” was “low polyreactivity”; that for “QDQLVESGGGLVQAGGSLRLSCAASGFTFSVNAMGWYRQAPGKERELVAAITRGRSTSYADSVKGRFTISRDNAKNTVYLQKNSLKPEDTAVYYCAASYSGGTWSGYYYWGQGTQVTVSS” was “high polyreactivity”.
